Experimental data from the DeepSol protein solubility set.

test: soluble on expression in E. coli; label from the status in PepcDB or PDB records

Sequence	soluble on expression in E. coli
MDDRLYAPATERNRDAILAVLKDELRSPGTVLEIASGTGEHGAYFAPQLPDYFWQPSDPNEESRRSIAAWRSHVNAPNLGEAIAIDVTRSDWVESVPEFPQPVVAIAAINLIHISPWEATLGLFAGAKQLLSVDGLIYLYGAYKRGGQHTAPSNEAFDASLQARNPAWGARNLEDVTAVAEAEQFRLDRIVEMPSNNLSVCFRAIALEHHHHHH	soluble
MPVANDAPGVDIEGTDADAESGDLPINELFQSLQGEGRLAGVPSVFVRTSGCNLRCWFCDSYHTSWEPTHDWFTVDDVLAAIEEYDANHVVLTGGEPLIHDSSEDLLARLTDRGYHTTVETNGTVVPDAPIDLASVSPKLASSTPTADRDPDGNGEWADRHEERRLDVPTLAELVETYDTQLKFVVTGREDMAEIERLLKRLRDAASTCVRDDDVLLMPEGQTRDQLEATRETVADLALEHGYRYTPRLHVDLWNDAPGT	not soluble
MGSDKIHHHHHHMENKLLVFLEAIQQHNSMTKAAQSLFISQPYISRTIKSAETHFGTPLIDRGHHPLELTYAGERLLTYLQSDARLHQRMNTELKEISQNKYQSMTIGITPPMANAWFSQTLPAFYQRFPNIRTKILEITTSKAETLLASHQLDFFIGKTIHQTNVKTIPLQTISLSLVIPKTAGIYQSNQFWRPFTPTILTGMTGEPVIRAVGEARFQELVDHYFADKGIQTIPLIEVDNSRFALSLTLQGLGSIVLATAMLARLATEPAKYPINAFKLPTSELSLDFSIAYLPSHVLAKPIAYLVEQACQTFNPAIDF	not soluble
IKPTYQGHVTVIIGRNDSKSSTNEQYNDVMMSQNLTKTYAQIAESRSVASKTVSKLSNGTTIDQVSKVVSVTPETGTQIIDITANAKSPEEAADLANDFSDSFVAVSKEVYTAGDARIIDRATAPKSPIKPKK	not soluble
MEKIIITATAESIEQVKALLAAGVDRIYVGEANYGLRLPHNFSYDELRQIAKLVHDAGKELTVACNALMHQDMMDQIKPFLDLMIEIAVDYLVVGDAGVFYVNKRDGYNFKLIYDTSVFVTSSRQVNFWGQHGAVESVLAREIPSAELFTLAENLEFPAEVLVYGASVIHHSKRPLLENYYHFTKIDDEVSRERGLFLAEPGDASSHYSIYEDNHGTHIFINNDIDMMSKLGELYAHGLTHWKLDGIYCPGDDFVAITKLFIQAKTLLEAGQFTQEEAEKLDQAVHAHHPAGRGLDTGFYEFDPKTVK	not soluble
MLLVMGAHESGLDRARLQSLYEQLVATNEDETEKLAASGHSTGLVASEWARFLAPFDFGYRLVALQRESKRVAAALTRALYGIDTSGASEHDPLWAVEHRVLPVPVTDRLLFCEMRFLLVLALSRRLWMRLERVDPLGQENPFPRDAEIIERVEDLARQSRERLALLAERSPEALNAGKQEAHDCIEDLRTKETRAAEQVAGFAQALGDAALLEKVWHALVDEIAQNRQLNHALLQTLCQWVLMLIGADTEVPSSASCSDE	soluble
MGSDKIHHHHHHMFVGFDYGSANCAVGIMQGDEVSLLPLSTDSAYLPSTLYAMDRELIAEAVYRALPAELKADYAKKRAAQLSRARMVRHELDLDAESPAVFVGEQAVAAYLEMPEEGFYVRSPKSFLGATGLRPEQVALFEDIVTLMMQHIKVRAEAVLVQKGMASKDEARITHAVIGRPVNFQGIGGEESNRQAEAILTLAAKRAGFVDVAFLFEPLAAGMDYEAGLKADQTVLVVDVGGGTTDCSVVKMGPSHKASFDRSRDCLGHSGQRIGGNDLDIALAMNAFMPHFGLGSLMSNGKPMPSNPFWNAVAVNDISAQREFATLSTRKLIDELIKEAEQPNLLKRLLKVQQQQLSYQIVRLAERAKIALSDAHTTESSLEFIEAMLSAEVNRDCFENAIEPSLGKIEALMHQALTQAAKSLTGNGLAPEELSVEAGTAECQPDVIYVTGGTARSPAIYAKITSLYPDTPVVVGDHFGSVTAGLTRWAQKHFAQ	not soluble
MTEKDYGQVTGMVHSTESFGSVDGPGIRFIIFLQGCKLRCQYCHNPDTWEMETNNSKIRTVNDVLKEALQYKHFWGKKGGITVSGGEAMLQIDFITALFIEAKKLGIHTTLDTCGFTYRPTPEYHQVLDNLLAVTDLILLDLKEIDEKQHKIVTRQPNKNILQFARYLSDKQIPVWIRHVLVPGLTD	not soluble
